Publication PMC11784017 (2024)

T1: SVCV-G protein, purified, biotinylated (spring viremia of carp virus (SVCV), UniProt Q91DS0 19-509, biotin (biotinylated))
T1 chain: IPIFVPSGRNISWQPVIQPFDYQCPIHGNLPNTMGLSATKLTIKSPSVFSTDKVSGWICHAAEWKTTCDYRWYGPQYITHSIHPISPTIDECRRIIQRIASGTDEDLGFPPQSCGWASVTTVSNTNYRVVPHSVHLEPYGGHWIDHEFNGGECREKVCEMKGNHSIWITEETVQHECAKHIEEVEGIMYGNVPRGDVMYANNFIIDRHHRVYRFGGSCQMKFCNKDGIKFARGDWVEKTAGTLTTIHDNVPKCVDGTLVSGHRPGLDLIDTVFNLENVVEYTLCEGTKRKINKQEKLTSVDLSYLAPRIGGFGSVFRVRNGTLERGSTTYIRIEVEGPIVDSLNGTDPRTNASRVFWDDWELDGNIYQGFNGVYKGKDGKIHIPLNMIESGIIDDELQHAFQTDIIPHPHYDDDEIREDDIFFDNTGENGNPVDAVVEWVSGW


Target: T1, SVCV-G protein, purified, biotinylated
Assay: BLI

| Binder | Kd [µM] |
| --- | --- |
| scFv-1 (scFv) chain 1: QSVEESGGRLVTPGTPLTLTCTASGFSLSTYYMTWVRQAPGKGLEWIGIIDPYGTTWSASWVKGRFTISRTSTTVDLKMTSLTAADTATYFCARIDSIYTIGHCDLWGQGTLVTVSL chain 2: ELVMTQTPASVSAAVGGTVTIKCQASQSIGTALAWYQQKPGQPPKLLIYKTSTLASGVSSRFKGSGSGTEFTLTISDLECADAVTYYCQYAYYGGNDVGGAFGGGDRAGDP | 3.12 |
| scFv-2 (scFv) chain 1: QSVEESGGRLITPGTPLTLTCTASGFSLSSHYMIWVRRTPGKGLEWIGLIFISGSTNYANWAKGRFTVSRTSTTVDLKITSPTTEDTATYFCARGRGGTDYQSWLFGLWGQGTVVTVSS chain 2: ELVMTQTPSPVSVAVGGTVTINCQSSPSVYSNYLSWYQQKPGQPPKQLIYGASSLASGVPSRFKGSGSGTQFTLTISGVECDDAATYYCVGWKGGPNGEFAFGGGDRAGDP | 3.71 |
